In patent publication US20240409645A1 one finds OD (PE binding ELISA) data, which are given here for 33 molecules.

The target in one test is T1, mouse IL-2Rα (mouse) (UniProt P01590).
T1 sequence (looked up): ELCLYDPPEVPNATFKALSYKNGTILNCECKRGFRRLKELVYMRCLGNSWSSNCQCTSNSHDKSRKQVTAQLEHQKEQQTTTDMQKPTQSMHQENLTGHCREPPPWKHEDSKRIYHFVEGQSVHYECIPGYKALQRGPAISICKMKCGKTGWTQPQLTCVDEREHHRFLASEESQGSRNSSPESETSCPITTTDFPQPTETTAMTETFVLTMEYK
Put plainly: ELISA, P.E. on coated antigen. On the technique in general: ELISA stands for enzyme-linked immunosorbent assay.

For a further test, the target named is T2, mouse IL-2Rγ (mouse) (UniProt P34902).
T2 sequence (looked up): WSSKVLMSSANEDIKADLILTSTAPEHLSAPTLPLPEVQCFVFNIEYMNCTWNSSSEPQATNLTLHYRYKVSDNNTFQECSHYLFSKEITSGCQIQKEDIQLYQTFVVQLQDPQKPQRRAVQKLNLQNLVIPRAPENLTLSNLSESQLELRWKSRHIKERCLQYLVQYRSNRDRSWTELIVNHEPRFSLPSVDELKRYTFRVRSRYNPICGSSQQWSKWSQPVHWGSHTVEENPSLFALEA
Put plainly: PE binding ELISA, periplasmic extract on coated protein.

Substitutions are numbered along the chain they refer to.

B1: FJ1427_P035MP01A01 (VHH)
VHH: EVQLVESGGGLVQAGDSLRLSCAASGRSFRNYILAWYRQAPGKEREFLAAISWLDGTLYADSVEDRFTISRDNPKNTVHLQMDNLKPEDTAVYYCAADRGPVRPVLAPDVDYWGQGTQVSVSS
For the molecule B1, the OD (PE binding ELISA) in the test with mouse IL-2Rα (mouse) is 0.046 OD450 nm.

B2: FJ1427_P035MP01G07 (VHH)
VHH: B1 VHH with E1Q, A14T, D65G, N84S, S120T
The molecule B2 registered an OD (PE binding ELISA) with mouse IL-2Rα (mouse) of 0.047 OD450 nm.

B3: FJ1427_P035MP01E07 (VHH)
VHH: B1 VHH with E1Q, V5Q, D55E, N84S, S120T
With B3, the OD (PE binding ELISA) with mouse IL-2Rα (mouse) came out at 0.046 OD450 nm.

B4: FJ1427_P035MP01E04 (VHH)
VHH: B1 VHH with E1Q, A24V, L58F, D61N, D65G, N84G, S120T, S122A
Molecule B4 displayed an OD (PE binding ELISA) with mouse IL-2Rα (mouse) of 0.046 OD450 nm.

B5: FJ1427_P035MP01G03 (VHH)
VHH: B1 VHH with E1Q, R99Q, S120T
In the case of B5, in the test with mouse IL-2Rα (mouse), the OD (PE binding ELISA) was 0.048 OD450 nm.

B6: FJ1427_P035MP01E02 (VHH)
VHH: B1 VHH with E1Q, S120T
As for B6, the OD (PE binding ELISA) in the test with mouse IL-2Rα (mouse) was 0.046 OD450 nm.

B7: 5-MP01F05 (VHH)
VHH: EVQLVESGGGLVQAGGSLRLSCAASIRAFTTWSMAWFRQAPGKEREYVARINVSGSVTYYADFVKGRFTISRDNAKKTMYLEMNNLKPEDTALYYCAADRTGVGTNDYNYWGQGTQVTVSS
Consider B7, for which, in the test with mouse IL-2Rα (mouse), the OD (PE binding ELISA) was determined as 0.046 OD450 nm.

B8: 1-MP01H01 (VHH)
VHH: EVQLVESGGGLVQAGGSLRLSCAASGRTFRTHNMGWFRRAPGKEREFVAAISWNVDNTLYADSVKGRFTISRDNGRNMVYLQMNSLKPEDTAVYYCAADNIPLSSDVAATATEYDYWGQGTQVTVSS
The molecule B8 yielded an OD (PE binding ELISA) with mouse IL-2Rα (mouse) of 0.048 OD450 nm.

B9: FJ1427_P035MP01E05 (VHH)
VHH: B8 VHH with E1Q, K43E, A50V, T58K, A108R, Y114F, D115G
For the molecule B9, in the test with mouse IL-2Rα (mouse), the OD (PE binding ELISA) was 0.046 OD450 nm.

B10: FJ1427_P035MP01G01 (VHH)
VHH: B8 VHH with E1Q, V5Q, G75D, Y95F, A108R, Y114F, D115G, Q122R
Consider B10, for which the OD (PE binding ELISA) with mouse IL-2Rα (mouse) was 0.053 OD450 nm.

B11: FJ1427_P035MP01D08 (VHH)
VHH: B8 VHH with R27G, H32R, I51V, T58K, D62G, V107M, A108R, A109P
As to B11, the OD (PE binding ELISA) with mouse IL-2Rα (mouse) turned out to be 0.045 OD450 nm.

B12: FJ1427_P035MP01F02 (VHH)
VHH: B8 VHH with E1Q, V5Q, V55I, T58K, F68S, R76G, Y80F, N100K, Y116D
Molecule B12 returned an OD (PE binding ELISA) with mouse IL-2Rα (mouse) of 0.046 OD450 nm.

B13: FJ1427_P035MP01H02 (VHH)
VHH: QLQLVESGGGLVQAGDSLRLSCAASGRAFSRYAVGWFRMAPGKGREFVSAINSSGANTYVLDSVKGRFTISRDNDKNTAYLQMDSLQPEDTAVYWCAATSSSYSTYEANYNVWGQGTQVTVSS
As for B13, in the test with mouse IL-2Rα (mouse), the OD (PE binding ELISA) amounted to 0.047 OD450 nm.

B14: FJ1427_P035MP01F06 (VHH)
VHH: B13 VHH with D16G, R27G, N52D, S53L, A56T, Y59H, S85K, T105D, V112I
On to B14, for which the OD (PE binding ELISA) with mouse IL-2Rα (mouse) was 0.046 OD450 nm.

B15: FJ1427_P035MP01B01 (VHH)
VHH: EVQLVESGGGWVQAGDSLRLSCAASGRTFRNYVMGWFRQVPGKEREFLSVITSLGGTVYADSVANRFTISRDNPKDTVYLQMDSLKPEDTAVYYCAADRGPARYISASDVDYWGQGTQVTASS
Turning to B15, in the test with mouse IL-2Rα (mouse), the OD (PE binding ELISA) stood at 0.046 OD450 nm.

B16: FJ1427_P035MP01D04 (VHH)
VHH: B15 VHH with E1Q, A14P, T28S, S53W, V58L, Y59D, N65D, P74S, D76N, A121V
In the test with mouse IL-2Rα (mouse), B16 gave an OD (PE binding ELISA) of 0.045 OD450 nm.

B17: 6-MP01G05 (VHH)
VHH: QVQLQESGGGLVQAGGSLRLSCAASGRTFSSYAMGWFRQAPGKEREFVAVISWNVDNTEYTDSVKGRFTISRDNDKNMVYLQMNSLKPEDTAVYYCAADSIPLSSDMSPTATEYGYWGQGTQVTVSS
In the test with mouse IL-2Rα (mouse), B17 had an OD (PE binding ELISA) of 0.046 OD450 nm.

B18: 2-MP01A02 (VHH)
VHH: QVQLVESGGGLVQPGGSLRLSCATSGFTFRNNFMSWVRQAPGKGLEWVSTISYGGESTTYAESVKGRFTISRDNAKNTLYLQMNNLKPEDTAVYYCAKATSYDSIRSGSRGQGTQVTVSS
The molecule B18 gave an OD (PE binding ELISA) in the test with mouse IL-2Rα (mouse) of 0.046 OD450 nm.

B19: FJ1427_P035MP01D03 (VHH)
VHH: B18 VHH with Q1E, K43E
B19: in the test with mouse IL-2Rα (mouse), the OD (PE binding ELISA) worked out at 0.048 OD450 nm.

B20: 8-MP01C12 (VHH)
VHH: B18 VHH with R30S, W47F, S63A, V93I, D103T, S107G, G108A, S109P
In turn, B20 registered an OD (PE binding ELISA) with mouse IL-2Rα (mouse) of 0.045 OD450 nm.

B21: FJ1427_P035MP01F03 (VHH)
VHH: B18 VHH with T24A, R30S, I105V
Take B21: the OD (PE binding ELISA) with mouse IL-2Rα (mouse) came out at 0.045 OD450 nm.

B22: FJ1427_P035MP01H05 (VHH)
VHH: B18 VHH with Q1E, T24A, R30S, G54F, E56D, Q112R
Consider B22, for which the OD (PE binding ELISA) with mouse IL-2Rα (mouse) came out at 0.046 OD450 nm.

B23: FJ1427_P035MP01G04 (VHH)
VHH: B18 VHH with T24A, R30S, G54F, E56D, T59R, A75E, Y80H, Q112R
Turning to B23, the OD (PE binding ELISA) with mouse IL-2Rα (mouse) was 0.047 OD450 nm.

B24: FJ1427_P035MP01C03 (VHH)
VHH: B18 VHH with Q1E
B24 had an OD (PE binding ELISA) in the test with mouse IL-2Rα (mouse) of 0.045 OD450 nm.

B25: 3-MP01E03 (VHH)
VHH: QVQLVESGGGLVQAGGSLRLSCTASGRTLSSYSMAWFRQAADKGREFVTAISSSGVVTHVLDSVKGRFTISRDNAKNTVYLQMNSLQPEDTALYFCAGTASSYSTYEANYNYWGQGTLVTVSS
In turn, B25 came in with an OD (PE binding ELISA) in the test with mouse IL-2Rα (mouse) of 0.046 OD450 nm.

B26: FJ1427_P035MP01H07 (VHH)
VHH: B25 VHH with Q1E, T23A, S31G, S33A, A40P, A41P, V56I, G98A, T105D
In the case of B26, in the test with mouse IL-2Rα (mouse), the OD (PE binding ELISA) worked out at 0.049 OD450 nm.

B27: FJ1427_P035MP04F11 (VHH)
VHH: QVQLVESGGGWVQVGESLRLSCAPSGRTFVSGIMGWFRQTPGKEREFVARIILNNNSTRYTDSVKGRFTISRDSAKNTLYLQMNTLRPEDTAVYYCAARDRYGSGNSLSPSAYDYWGQGTQVTVSS
For the molecule B27, in the test with mouse IL-2Rγ (mouse), the OD (PE binding ELISA) worked out at 0.049 OD450 nm.

B28: FJ1427_P035MP04H11 (VHH)
VHH: B27 VHH with L18P, L79M
In the case of B28, the OD (PE binding ELISA) with mouse IL-2Rγ (mouse) amounted to 0.049 OD450 nm.

B29: FJ1427_P035MP04C12 (VHH)
VHH: B27 VHH with Q1E, T40A, T61I, L79M, N84D, T85S
Take B29: the OD (PE binding ELISA) in the test with mouse IL-2Rγ (mouse) was 0.048 OD450 nm.

B30: FJ1427_P035MP04G11 (VHH)
VHH: B27 VHH with T40A, K43E, L79M
Consider B30, for which, in the test with mouse IL-2Rγ (mouse), the OD (PE binding ELISA) was 0.048 OD450 nm.

B31: FJ1427_P035MP04D12 (VHH)
VHH: B27 VHH with E16K, T40A, T61I, L79M, N84D, T85S
In the test with mouse IL-2Rγ (mouse), B31 gave an OD (PE binding ELISA) of 0.054 OD450 nm.

B32: FJ1427_P035MP04E12 (VHH)
VHH: B27 VHH with V2L, V30A, T40A, L79M
Regarding B32, the OD (PE binding ELISA) in the test with mouse IL-2Rγ (mouse) was 0.051 OD450 nm.

B33: 07-MP01G08 (VHH)
VHH: EVQLVESGGGLVQAGGSLRLSCAASGRAFSMYNMGWFRQAPGKEREFVAATGWSGANTPYADSVKGRFTISRDNTQNTVYLQMNSLKPEDTATYYCAADSIRLRSDVTRIPLEYDYWGQGTQVTVSS
Turning to B33, the OD (PE binding ELISA) in the test with mouse IL-2Rα (mouse) came to 0.046 OD450 nm.
